US20260028399A1

Legend:
human CD96 (human) [1] = target: T1, human CD96 (human) (UniProt P40200); assay: phage ELISA on coated CD96 (4 ug/ml), phage 1 x 10^11 pfu/ml, anti-M13-HRP/TMB
T1 sequence: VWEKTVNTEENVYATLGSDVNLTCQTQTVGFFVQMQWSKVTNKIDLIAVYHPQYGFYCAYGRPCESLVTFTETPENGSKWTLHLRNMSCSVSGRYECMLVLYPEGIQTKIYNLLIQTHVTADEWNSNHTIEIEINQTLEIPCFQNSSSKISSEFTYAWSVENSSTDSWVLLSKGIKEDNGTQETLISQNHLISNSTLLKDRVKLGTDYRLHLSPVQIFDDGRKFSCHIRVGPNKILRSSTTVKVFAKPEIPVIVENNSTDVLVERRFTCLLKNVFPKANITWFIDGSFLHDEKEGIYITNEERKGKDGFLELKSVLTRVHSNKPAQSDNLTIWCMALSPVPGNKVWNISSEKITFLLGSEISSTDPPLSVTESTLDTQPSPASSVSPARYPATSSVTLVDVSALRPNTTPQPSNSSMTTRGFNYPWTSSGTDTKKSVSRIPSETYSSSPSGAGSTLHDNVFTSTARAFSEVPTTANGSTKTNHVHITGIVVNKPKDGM

human TIGIT (human) [2] = target: T2, human TIGIT (human) (UniProt Q495A1); assay: phage ELISA on coated TIGIT (4 ug/ml), phage 7.5 x 10^8 pfu/ml, anti-M13-HRP/TMB
T2 sequence: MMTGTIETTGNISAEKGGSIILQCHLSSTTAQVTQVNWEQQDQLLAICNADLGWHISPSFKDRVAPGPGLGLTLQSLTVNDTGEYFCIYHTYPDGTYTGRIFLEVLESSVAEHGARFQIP

human TIGIT (human) [3] = target: T2, human TIGIT (human); assay: phage ELISA on coated TIGIT (4 ug/ml), phage 6 x 10^9 pfu/ml, anti-M13-HRP/TMB
human TIGIT (human) [4] = target: T2, human TIGIT (human); assay: phage ELISA on coated TIGIT (4 ug/ml), phage 4.8 x 10^8 pfu/ml (so in the source), anti-M13-HRP/TMB
human TIGIT (human) [5] = target: T2, human TIGIT (human); assay: phage ELISA on coated TIGIT (4 ug/ml), phage 3.7 x 10^8 pfu/ml, anti-M13-HRP/TMB
human CD96 (human) [6] = target: T1, human CD96 (human); assay: phage ELISA on coated CD96 (4 ug/ml), phage 2.5 x 10^10 pfu/ml, anti-M13-HRP/TMB
human CD96 (human) [7] = target: T1, human CD96 (human); assay: phage ELISA on coated CD96 (4 ug/ml), phage 1.5 x 10^9 pfu/ml, anti-M13-HRP/TMB
human TIGIT (human) [8] = target: T2, human TIGIT (human); assay: phage ELISA on coated TIGIT (4 ug/ml), phage 1 x 10^11 pfu/ml, anti-M13-HRP/TMB
human CD96 (human) [9] = target: T1, human CD96 (human); assay: phage ELISA on coated CD96 (4 ug/ml), phage 1.2 x 10^10 pfu/ml, anti-M13-HRP/TMB
human TIGIT (human) [10] = target: T2, human TIGIT (human); assay: phage ELISA on coated TIGIT (4 ug/ml), phage 1.2 x 10^10 pfu/ml, anti-M13-HRP/TMB
human CD96 (human) [11] = target: T1, human CD96 (human); assay: phage ELISA on coated CD96 (4 ug/ml), phage 5 x 10^10 pfu/ml, anti-M13-HRP/TMB
human TIGIT (human) [12] = target: T2, human TIGIT (human); assay: phage ELISA on coated TIGIT (4 ug/ml), phage 1.5 x 10^9 pfu/ml, anti-M13-HRP/TMB
human CD96 (human) [13] = target: T1, human CD96 (human); assay: phage ELISA on coated CD96 (4 ug/ml), phage 3.7 x 10^8 pfu/ml, anti-M13-HRP/TMB
human TIGIT (human) [14] = target: T2, human TIGIT (human); assay: phage ELISA on coated TIGIT (4 ug/ml), phage 2.5 x 10^10 pfu/ml, anti-M13-HRP/TMB
human CD96 (human) [15] = target: T1, human CD96 (human); assay: phage ELISA on coated CD96 (4 ug/ml), phage 0 pfu/ml (no phage, background), anti-M13-HRP/TMB
human TIGIT (human) [16] = target: T2, human TIGIT (human); assay: phage ELISA on coated TIGIT (4 ug/ml), phage 0 pfu/ml (no phage, background), anti-M13-HRP/TMB
human CD96 (human) [17] = target: T1, human CD96 (human); assay: phage ELISA on coated CD96 (4 ug/ml), phage 6 x 10^9 pfu/ml, anti-M13-HRP/TMB
human CD96 (human) [18] = target: T1, human CD96 (human); assay: phage ELISA on coated CD96 (4 ug/ml), phage 3 x 10^9 pfu/ml, anti-M13-HRP/TMB
human CD96 (human) [19] = target: T1, human CD96 (human); assay: phage ELISA on coated CD96 (4 ug/ml), phage 9 x 10^7 pfu/ml, anti-M13-HRP/TMB
human CD96 (human) [20] = target: T1, human CD96 (human); assay: phage ELISA on coated CD96 (4 ug/ml), phage 7.5 x 10^8 pfu/ml, anti-M13-HRP/TMB
human CD96 (human) [21] = target: T1, human CD96 (human); assay: phage ELISA on coated CD96 (4 ug/ml), phage 4.8 x 10^8 pfu/ml (so in the source), anti-M13-HRP/TMB
human TIGIT (human) [22] = target: T2, human TIGIT (human); assay: phage ELISA on coated TIGIT (4 ug/ml), phage 5 x 10^10 pfu/ml, anti-M13-HRP/TMB
human TIGIT (human) [23] = target: T2, human TIGIT (human); assay: phage ELISA on coated TIGIT (4 ug/ml), phage 9 x 10^7 pfu/ml, anti-M13-HRP/TMB
human TIGIT (human) [24] = target: T2, human TIGIT (human); assay: phage ELISA on coated TIGIT (4 ug/ml), phage 3 x 10^9 pfu/ml, anti-M13-HRP/TMB
BSA [25] = target: BSA (UniProt P02769); assay: phage ELISA on coated BSA, phage 7.5 x 10^8 pfu/ml, anti-M13-HRP/TMB
Sequence of UniProt P02769 (P02769 25-607 limits assumed): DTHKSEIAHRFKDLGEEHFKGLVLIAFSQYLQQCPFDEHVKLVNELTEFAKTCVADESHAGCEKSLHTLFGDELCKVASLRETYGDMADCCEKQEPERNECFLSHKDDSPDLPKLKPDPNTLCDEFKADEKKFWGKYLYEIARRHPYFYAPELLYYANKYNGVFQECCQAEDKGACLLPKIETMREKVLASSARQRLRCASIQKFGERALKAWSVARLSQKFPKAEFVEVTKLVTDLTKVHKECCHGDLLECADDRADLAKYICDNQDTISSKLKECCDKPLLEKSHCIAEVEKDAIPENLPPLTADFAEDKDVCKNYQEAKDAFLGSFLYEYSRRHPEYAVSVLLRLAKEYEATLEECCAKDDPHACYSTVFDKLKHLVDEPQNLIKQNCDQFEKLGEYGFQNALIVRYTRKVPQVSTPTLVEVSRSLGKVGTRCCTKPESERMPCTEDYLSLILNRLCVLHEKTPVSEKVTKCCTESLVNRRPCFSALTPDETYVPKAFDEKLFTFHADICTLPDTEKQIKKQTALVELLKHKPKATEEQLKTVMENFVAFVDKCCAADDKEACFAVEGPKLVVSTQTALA

BSA [26] = target: BSA (UniProt P02769); assay: phage ELISA on coated BSA, phage 4.8 x 10^8 pfu/ml (so in the source), anti-M13-HRP/TMB
BSA [27] = target: BSA (UniProt P02769); assay: phage ELISA on coated BSA, phage 3.7 x 10^8 pfu/ml, anti-M13-HRP/TMB
BSA [28] = target: BSA (UniProt P02769); assay: phage ELISA on coated BSA, phage 2.5 x 10^10 pfu/ml, anti-M13-HRP/TMB
BSA [29] = target: BSA (UniProt P02769); assay: phage ELISA on coated BSA, phage 1.2 x 10^10 pfu/ml, anti-M13-HRP/TMB
BSA [30] = target: BSA (UniProt P02769); assay: phage ELISA on coated BSA, phage 6 x 10^9 pfu/ml, anti-M13-HRP/TMB
BSA [31] = target: BSA (UniProt P02769); assay: phage ELISA on coated BSA, phage 9 x 10^7 pfu/ml, anti-M13-HRP/TMB
BSA [32] = target: BSA (UniProt P02769); assay: phage ELISA on coated BSA, phage 1.5 x 10^9 pfu/ml, anti-M13-HRP/TMB
BSA [33] = target: BSA (UniProt P02769); assay: phage ELISA on coated BSA, phage 3 x 10^9 pfu/ml, anti-M13-HRP/TMB
BSA [34] = target: BSA (UniProt P02769); assay: phage ELISA on coated BSA, phage 1 x 10^11 pfu/ml, anti-M13-HRP/TMB
BSA [35] = target: BSA (UniProt P02769); assay: phage ELISA on coated BSA, phage 5 x 10^10 pfu/ml, anti-M13-HRP/TMB
BSA [36] = target: BSA (UniProt P02769); assay: phage ELISA on coated BSA, phage 0 pfu/ml (no phage, background), anti-M13-HRP/TMB

irrelevant phage
phage ELISA signal (human CD96 (human) [1]): 0.59
phage ELISA signal (human TIGIT (human) [2]): 0.03
phage ELISA signal (human TIGIT (human) [3]): 0.09
phage ELISA signal (human TIGIT (human) [4]): 0.03
phage ELISA signal (human TIGIT (human) [5]): 0.03
phage ELISA signal (human CD96 (human) [6]): 0.18
phage ELISA signal (human CD96 (human) [7]): 0.02
phage ELISA signal (human TIGIT (human) [8]): 0.24
phage ELISA signal (human CD96 (human) [9]): 0.08
phage ELISA signal (human TIGIT (human) [10]): 0.15
phage ELISA signal (human CD96 (human) [11]): 0.31
phage ELISA signal (human TIGIT (human) [12]): 0.04
phage ELISA signal (human CD96 (human) [13]): 0.01
phage ELISA signal (human TIGIT (human) [14]): 0.25
phage ELISA signal (human CD96 (human) [15]): 0.05
phage ELISA signal (human TIGIT (human) [16]): 0.04
phage ELISA signal (human CD96 (human) [17]): 0.08
phage ELISA signal (human CD96 (human) [18]): 0.02
phage ELISA signal (human CD96 (human) [19]): 0.03
phage ELISA signal (human CD96 (human) [20]): 0.02
phage ELISA signal (human CD96 (human) [21]): 0.02
phage ELISA signal (human TIGIT (human) [22]): 0.31
phage ELISA signal (human TIGIT (human) [23]): 0.04
phage ELISA signal (human TIGIT (human) [24]): 0.07

B1: anti-CD96 clone G1 scFv (R7P1-G1), displayed on phage (scFv, part only; not given: linker, domain order, phage fusion, V domains shown, not shown: another chain or arm of the molecule; large carriers; small tags and cut ends)
VH: EVQLVESGGDLVKPAGSLRLSCVASGFPFSDSDMNWVRQAPGKGLQWVAGIDEGATDTGYADAVKGRFTISRDDAKNTLYLQMNSLRADDTAMYYCAAGGNFAYWGQGTLVTVSS
VL: DIVMTQTPLSLSVSPGEPASISCKASQSLLHSNGNTYLYWFRQKPGQSPQGLIYLVSKRFSWVPDRFSGSGSGTDFTLRISRVEADDAGLYYCGQGIQYPYTFSQGTKLEIK
phage ELISA signal (human CD96 (human) [1]): 2.61
phage ELISA signal (BSA [25]): 0.01
phage ELISA signal (human CD96 (human) [6]): 2.65
phage ELISA signal (human CD96 (human) [7]): 1.73
phage ELISA signal (BSA [26]): 0.01
phage ELISA signal (BSA [27]): 0.02
phage ELISA signal (BSA [28]): 0.03
phage ELISA signal (human CD96 (human) [9]): 2.59
phage ELISA signal (BSA [29]): 0.02
phage ELISA signal (human CD96 (human) [11]): 2.68
phage ELISA signal (human CD96 (human) [13]): 0.95
phage ELISA signal (human CD96 (human) [15]): 0.05
phage ELISA signal (BSA [30]): 0.02
phage ELISA signal (BSA [31]): 0.03
phage ELISA signal (human CD96 (human) [17]): 2.28
phage ELISA signal (human CD96 (human) [18]): 2.11
phage ELISA signal (human CD96 (human) [19]): 0.38
phage ELISA signal (BSA [32]): 0.02
phage ELISA signal (human CD96 (human) [20]): 1.36
phage ELISA signal (human CD96 (human) [21]): 0.63
phage ELISA signal (BSA [33]): 0.02
phage ELISA signal (BSA [34]): 0.06
phage ELISA signal (BSA [35]): 0.04
phage ELISA signal (BSA [36]): 0.05

B2: anti-TIGIT clone C2 scFv (R8P1-C2), displayed on phage (scFv, part only; not given: linker, domain order, phage fusion, V domains shown, not shown: another chain or arm of the molecule; large carriers; small tags and cut ends)
VH: GVQLVESGGDLVKPAGSLRLSCVASGFTFSNYGMSWVRQAPGKGLQWVASIASGGSATAYADAVKGRFTLSRDDAKNTLYLQMNNLRTEDTSMYYCVAPGFQYWGQGTLVTVSS
VL: DIVMTQTPLSLSVSPGETASISCKASQSLLHSNGNTYLFWFRQKSGQSPQRLIYKVSNRDPGVPDRLSGSGSGTDFTLRISRVEADDAGVYYCGQGIQIPRTFGQGTKLEIK
phage ELISA signal (BSA [25]): 0.01
phage ELISA signal (human TIGIT (human) [2]): 1.99
phage ELISA signal (human TIGIT (human) [3]): 2.58
phage ELISA signal (human TIGIT (human) [4]): 1.21
phage ELISA signal (human TIGIT (human) [5]): 1.61
phage ELISA signal (BSA [26]): 0.02
phage ELISA signal (BSA [27]): 0.02
phage ELISA signal (BSA [28]): 0.04
phage ELISA signal (human TIGIT (human) [8]): 2.05
phage ELISA signal (human TIGIT (human) [10]): 2.54
phage ELISA signal (BSA [29]): 0.04
phage ELISA signal (human TIGIT (human) [12]): 2.34
phage ELISA signal (human TIGIT (human) [14]): 2.66
phage ELISA signal (BSA [30]): 0.03
phage ELISA signal (human TIGIT (human) [16]): 0.03
phage ELISA signal (BSA [31]): 0.03
phage ELISA signal (BSA [32]): 0.02
phage ELISA signal (BSA [33]): 0.02
phage ELISA signal (BSA [34]): 0.07
phage ELISA signal (human TIGIT (human) [22]): 2.53
phage ELISA signal (BSA [35]): 0.04
phage ELISA signal (human TIGIT (human) [23]): 0.79
phage ELISA signal (BSA [36]): 0.04
phage ELISA signal (human TIGIT (human) [24]): 2.52
